Blank lines part the entries; values can stand above or below the compound they belong to.
Assays:
MtaLonC = molecular target: T1, MtaLonC (Meiothermus taiwanensis, UniProt C9DRU9); assay: isothermal titration calorimetry, one-site fit; type: binding
T1 construct: gene lon_2; full-length, 719 residues, C-terminal His tag (pET21a), expressed in E. coli BL21(DE3); homohexamer, monomer 79 kDa
T1 sequence (C9DRU9 1-719): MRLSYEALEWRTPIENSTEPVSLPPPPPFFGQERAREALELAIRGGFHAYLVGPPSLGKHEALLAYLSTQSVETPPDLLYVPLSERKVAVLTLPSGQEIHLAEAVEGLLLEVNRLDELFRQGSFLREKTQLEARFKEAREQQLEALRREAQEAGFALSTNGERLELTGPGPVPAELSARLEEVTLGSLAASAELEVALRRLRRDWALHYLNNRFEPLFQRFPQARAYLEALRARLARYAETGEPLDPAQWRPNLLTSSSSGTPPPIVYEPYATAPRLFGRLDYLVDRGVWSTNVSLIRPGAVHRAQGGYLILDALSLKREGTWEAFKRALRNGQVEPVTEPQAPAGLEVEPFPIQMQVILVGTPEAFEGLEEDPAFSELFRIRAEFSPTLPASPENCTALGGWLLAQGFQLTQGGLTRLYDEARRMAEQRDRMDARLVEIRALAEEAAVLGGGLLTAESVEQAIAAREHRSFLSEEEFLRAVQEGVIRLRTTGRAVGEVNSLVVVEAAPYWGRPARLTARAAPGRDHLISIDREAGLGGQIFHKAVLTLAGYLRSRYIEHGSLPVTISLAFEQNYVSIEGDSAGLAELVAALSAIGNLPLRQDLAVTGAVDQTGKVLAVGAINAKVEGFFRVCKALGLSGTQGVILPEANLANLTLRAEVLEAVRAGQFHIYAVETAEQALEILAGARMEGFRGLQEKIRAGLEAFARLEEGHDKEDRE

[1] = molecular target: Lon-like protease MtaLonC from Meiothermus taiwanensis WR-220 (Meiothermus taiwanensis WR-220); assay: AUC; sedimentation equilibrium (4,000-6,000 r.p.m.) and sedimentation velocity (20,000 rpm), 20°C, 20 mM sodium citrate pH 5.5, 100 mM NaCl, 1 mM DTT, 7.8 µM protein
[2] = molecular target: Lon-like protease MtaLonC from Meiothermus taiwanensis WR-220 (Meiothermus taiwanensis WR-220); assay: negative-stain electron microscopy; about 50 µg/ml MtaLonC, 2% uranyl acetate, class averages; hexamer and void-volume fractions from Superose 6
[3] = molecular target: Lon-like protease MtaLonC from Meiothermus taiwanensis WR-220 (Meiothermus taiwanensis WR-220); assay: SEC; Superose 6; 1 mg/mL, pH 5-8; hexamer formation not dependent on Mg2+ or ATP; aggregates in the void volume when concentrated
EcLonA = molecular target: T2, EcLonA (Escherichia coli, UniProt P0A9M0); assay: […]-NMR of phosphate release; colorimetric ATPase assay; type: biochemical; settings: 37 °C, 50 mM Tris-HCl pH 8.0, 10 mM MgCl2, 10 mM ATP (NMR); positive control
T2 construct: gene lon; recombinant, expressed and purified as described previously
T2 sequence (P0A9M0 2-784): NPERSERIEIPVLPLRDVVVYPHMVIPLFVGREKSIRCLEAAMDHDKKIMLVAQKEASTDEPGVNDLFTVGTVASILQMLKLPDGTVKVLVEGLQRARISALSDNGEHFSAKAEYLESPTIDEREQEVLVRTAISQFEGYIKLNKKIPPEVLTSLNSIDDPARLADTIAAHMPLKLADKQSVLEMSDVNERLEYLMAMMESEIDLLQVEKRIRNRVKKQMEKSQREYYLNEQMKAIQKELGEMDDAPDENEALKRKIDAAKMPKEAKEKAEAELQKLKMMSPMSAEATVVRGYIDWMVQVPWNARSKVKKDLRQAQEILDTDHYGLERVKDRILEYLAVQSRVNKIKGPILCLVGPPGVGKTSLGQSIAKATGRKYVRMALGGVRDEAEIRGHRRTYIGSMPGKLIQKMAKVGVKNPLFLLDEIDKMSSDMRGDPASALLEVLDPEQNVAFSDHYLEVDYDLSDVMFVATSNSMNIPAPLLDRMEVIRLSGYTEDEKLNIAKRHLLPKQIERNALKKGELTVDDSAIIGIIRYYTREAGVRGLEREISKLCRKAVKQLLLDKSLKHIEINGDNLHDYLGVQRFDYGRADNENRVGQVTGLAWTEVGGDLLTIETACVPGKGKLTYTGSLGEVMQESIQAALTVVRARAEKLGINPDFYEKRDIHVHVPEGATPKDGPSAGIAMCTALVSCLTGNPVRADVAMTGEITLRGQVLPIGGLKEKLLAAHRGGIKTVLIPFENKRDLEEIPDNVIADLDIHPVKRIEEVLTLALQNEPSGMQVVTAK

Compound: Nc1ncnc2c1ncn2[C@@H]1O[C@H](CO[P@](=O)(O)O[P@](=O)(O)O[P@@](=O)(O)S)[C@@H](O)[C@H]1O [ATPγS]
Kd (MtaLonC): 7.8 µM

stoichiometry N [1]: 6
stoichiometry N [2]: 6
stoichiometry N [3]: 6
Compound: Lon-like protease MtaLonC from Meiothermus taiwanensis WR-220 (enzyme)

Compound: Nc1ncnc2c1ncn2[C@@H]1O[C@H](COP(=O)(O)OP(=O)(O)OP(=O)(O)O)[C@@H](O)[C@H]1O [ATP]
31P-NMR of phosphate release; colorimetric ATPase assay (EcLonA): incubation of an excess amount of ATP with EcLonA resulted in hydrolysis of ATP

Reference: article PMC3391209, “A Lon-Like Protease with No ATP-Powered Unfolding Activity” (PLoS ONE, 2012)
